In publication PMC4499135:

Experiments:
Assay in all cases: EMSA
TRF2ΔB = conditions: 20 mM Hepes pH 7.9, 100 mM NaCl, 50 mM KCl, 1 mM MgCl2, 0.1 mM EDTA, 1 mM DTT, 5% glycerol, 0.5 mg/ml BSA, 0.1% NP-40, chicken erythrocyte nucleosome carrier …
TRF2 = conditions: 20 mM Hepes pH 7.9, 100 mM NaCl, 50 mM KCl, 1 mM MgCl2, 0.1 mM EDTA, 1 mM DTT, 5% glycerol, 0.5 mg/ml BSA, 0.1% NP-40, chicken erythrocyte nucleosome carrier …
TRF1 = conditions: 20 mM Hepes pH 7.9, 100 mM NaCl, 50 mM KCl, 1 mM MgCl2, 0.1 mM EDTA, 1 mM DTT, 5% glycerol, 0.5 mg/ml BSA, 0.1% NP-40, chicken erythrocyte nucleosome carrier …
TRF2AΔB = conditions: 20 mM Hepes pH 7.9, 100 mM NaCl, 50 mM KCl, 1 mM MgCl2, 0.1 mM EDTA, 1 mM DTT, 5% glycerol, 0.5 mg/ml BSA, 0.1% NP-40, chicken erythrocyte nucleosome carrier …
TRF2-Myb = conditions: histone octamer, salt dilution; 20 mM Hepes pH 7.9, 100 mM NaCl, 50 mM KCl, 1 mM MgCl2, 0.1 mM EDTA, 1 mM DTT, 5% glycerol, 0.5 mg/ml BSA, 0.1% NP-40, chicken erythrocyte nucleosome carrier …
TRF1-Myb = conditions: histone octamer, salt dilution; 20 mM Hepes pH 7.9, 100 mM NaCl, 50 mM KCl, 1 mM MgCl2, 0.1 mM EDTA, 1 mM DTT, 5% glycerol, 0.5 mg/ml BSA, 0.1% NP-40, chicken erythrocyte nucleosome carrier …
[1] = intact histone octamer, scale: fold higher affinity vs naked Tel2-601-Tel2
[2] = histone tails removed by trypsin

## Tel2-601-Tel2 NCP
TRF2ΔB; [1]
  binding signal: 3
TRF2; intact histone octamer, scale: fold lower affinity vs naked Tel2-601-Tel2
  binding signal: 2
TRF1; [1]
  binding signal: 3
TRF2AΔB; [1]
  binding signal: 2

## Tel2-601-Tel2 tailless NCP
TRF2ΔB; [2]
  binding signal (fold lower affinity vs intact NCP): 2
TRF2; [2]
  binding signal (fold higher affinity vs intact NCP): 2
TRF1; [2]
  binding signal (fold lower affinity vs intact NCP): 3
TRF2AΔB; [2]
  binding signal (fold lower affinity vs intact NCP): 3

## Tel8-L NCP
TRF2; C1/2 extrapolated, 3 experiments, histone octamer, salt dilution
  binding signal (fold lower affinity vs naked Tel8-L): 100
TRF2-Myb
  binding signal (fold lower affinity vs naked Tel8-L): 13
TRF1-Myb
  binding signal (fold lower affinity vs naked Tel8-L): 11
